Measured values taken from patent US20230192887A1 (published 2023).

B1: Bispecific Protein #9 (bispecific antibody, human IgG1, kappa, L234A L235A)
heavy 1: EVQLVESGGGLVQPGGSLRLSCAASGFTFTDYTMDWVRQAPGKGLEWVADVNPNSGGSIYNQRFKGRFTLSVDRSKNTLYLQMNSLRAEDTAVYYCARNLGPSFYFDYWGQGTLVTVSSASTKGPSVFPLAPSSKSTSGGTAALGCLVKDYFPEPVTVSWNSGALTSGVHTFPAVLQSSGLYSLSSVVTVPSSSLGTQTYICNVNHKPSNTKVDKKVEPKSCDKTHTCPPCPAPEAAGGPSVFLFPPKPKDTLMISRTPEVTCVVVDVSHEDPEVKFNWYVDGVEVHNAKTKPREEQYNSTYRVVSVLTVLHQDWLNGKEYKCKVSNKALPAPIEKTISKAKGQPREPQVYTLPPSRDELTKNQVSLWCLVKGFYPSDIAVEWESYGTEWSNYKTTPPVLDSDGSFFLYSKLTVSKEEWQQGFVFSCSVMHEALHNHYTQKSLSLSPGK
heavy 2: not shown
light: not shown
B2: Bispecific Protein #2 (bispecific antibody, human IgG1, kappa, L234A L235A)
heavy: B1 heavy 1
chain: not shown
light: not shown

Legend:
[1] = molecular target: HER2 on HER2^+ tumor cell lines (BT474, OE19, ZR75) (UniProt P04626 23-1255, limits assumed); test: cell-based or functional assay
[2] = molecular target: T1, recombinant human TfR apical domain (human, UniProt P02786 198-378); test: SPR (Biacore T200 or 8K); protein captured on anti-human Fab chip, recombinant human TfR apical domain as analyte; 1:1 Langmuir fit
T1 construct: also called transferrin receptor protein 1 apical domain
T1 sequence (P02786 198-378 limits assumed): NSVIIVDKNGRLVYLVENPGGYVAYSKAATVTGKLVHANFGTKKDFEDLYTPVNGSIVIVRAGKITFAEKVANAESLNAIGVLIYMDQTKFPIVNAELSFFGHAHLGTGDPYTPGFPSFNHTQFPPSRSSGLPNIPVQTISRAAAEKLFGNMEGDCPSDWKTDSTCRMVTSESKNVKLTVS
Method: Affinities of the bispecific proteins were measured by SPR using a Biacore T200 or a Biacore 8K. Biacore™ Series S CM5 sensor chips were immobilized with monoclonal mouse anti-human IgG (Fc) antibody for HER2 affinity measurements or mouse anti-human Fab for TfR affinity measurements (human antibody or Fab capture kit from GE Healthcare). Serial 3-fold dilutions of analyte (recombinant HER2 extracellular domain or recombinant TfR apical domain) were injected at a flow rate of 30 μL/min. Each sample was analyzed using a 3-minute association and a 10-minute dissociation for HER2 extracellular domain binding and a 40-second association and a 3-minute dissociation for human TfR apical domain binding. After each injection, the chip was regenerated using 3 M MgCl₂ or 50 mM glycine at pH 2.0. Binding response was corrected by subtracting the RU from a flow cell capturing an irrelevant IgG at similar density. A 1:1 Languir model of simultaneous fitting of kon and koff was used for kinetics analysis. […] The two constructs are described below.

Binder | IC50 (nM), BT474 + NRG1 [1] | IC50 (nM), BT-474 [1] | IC50 (nM), OE19 [1] | Min Cell viability (%), BT474 + NRG1 [1] | Min Cell viability (%), BT-474 [1] | Min Cell viability (%), OE19 [1] | Min Cell viability (%), ZR75-30 [1] | Kd [2]
B1 | 3.5 nM | 2.3 nM | 1.1 nM | 37% | 21% | 57% | 87% | 500 nM
B2 |  |  |  |  |  |  |  | 480 nM
